# Results published in US9095624.
# Molecular target: EGFR receptors of A431 human epidermoid carcinoma cells (human) (UniProt P00533)
substance,measurement,value
DTox-HMP-NLS-EGF after refolding (from UniProt P00588 198-384; P24232 1-396; P01133 971-1023),Ka,5.4e+13 M⁻¹
same,fold increase of affinity after refolding against before refolding,> 2.8 fold
